Values quoted from earlier work as cited in PMC7674454.

Molecular target: calbindin D9k EF2 EF-hand 2 (Bos taurus) (UniProt P02633)
Test: SPR

Kd: 3 pM
Substance: calbindin D9k EF1 EF-hand 1 (from UniProt P02633)
